# Source: IntAct's records for PubMed 35512704
# B1: Mothers against decapentaplegic homolog 4 (Homo sapiens), Q13485 (parent)
# chain: MDNMSITNTPTSNDACLSIVHSLMCHRQGGESETFAKRAIESLVKKLKEKKDELDSLITAITTNGAHPSKCVTIQRTLDGRLQVAGRKGFPHVIYARLWRWPDLHKNELKHVKYCQYAFDLKCDSVCVNPYHYERVVSPGIDLSGLTLQSNAPSSMMVKDEYVHDFEGQPSLSTEGHSIQTIQHPPSNRASTETYSTPALLAPSESNATSTANFPNIPVASTSQPASILGGSHSEGLLQIASGPQPGQQQNGFTGQPATYHHNSTTTWTGSRTAPYTPNLPHHQNGHLQHHPPMPPHPGHYWPVHNELAFQPPISNHPAPEYWCSIAYFEMDVQVGETFKVPSSCPIVTVDGYVDPSGGDRFCLGQLSNVHRTEAIERARLHIGKGVQLECKGEGDVWVRCLSDHAVFVQSYYLDREAGRAPGDAVHKIYPSAYIKVFDLRQCHRQMQQQAATAQAAAAAQAAAVAGNIPGPGSVGGIAPAISLSAAAGIGVDDLRRLCILRMSFVKGWGPDYPRQSIKETPCWIEIHLHRALQLLDEVLHTMPIADPQPLD
# partner: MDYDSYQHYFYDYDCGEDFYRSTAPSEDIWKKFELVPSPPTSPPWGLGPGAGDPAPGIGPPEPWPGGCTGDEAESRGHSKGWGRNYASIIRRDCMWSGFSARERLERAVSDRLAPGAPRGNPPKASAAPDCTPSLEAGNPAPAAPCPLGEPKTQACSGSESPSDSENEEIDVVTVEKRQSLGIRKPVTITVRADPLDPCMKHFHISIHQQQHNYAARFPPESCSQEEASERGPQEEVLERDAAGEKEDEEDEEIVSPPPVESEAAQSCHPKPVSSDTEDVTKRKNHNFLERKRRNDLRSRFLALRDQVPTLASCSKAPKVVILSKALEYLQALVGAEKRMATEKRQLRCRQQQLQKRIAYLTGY
# B2: Mothers against decapentaplegic homolog 4 (Homo sapiens), Q13485 (parent)
# chain: B1 chain
# partner: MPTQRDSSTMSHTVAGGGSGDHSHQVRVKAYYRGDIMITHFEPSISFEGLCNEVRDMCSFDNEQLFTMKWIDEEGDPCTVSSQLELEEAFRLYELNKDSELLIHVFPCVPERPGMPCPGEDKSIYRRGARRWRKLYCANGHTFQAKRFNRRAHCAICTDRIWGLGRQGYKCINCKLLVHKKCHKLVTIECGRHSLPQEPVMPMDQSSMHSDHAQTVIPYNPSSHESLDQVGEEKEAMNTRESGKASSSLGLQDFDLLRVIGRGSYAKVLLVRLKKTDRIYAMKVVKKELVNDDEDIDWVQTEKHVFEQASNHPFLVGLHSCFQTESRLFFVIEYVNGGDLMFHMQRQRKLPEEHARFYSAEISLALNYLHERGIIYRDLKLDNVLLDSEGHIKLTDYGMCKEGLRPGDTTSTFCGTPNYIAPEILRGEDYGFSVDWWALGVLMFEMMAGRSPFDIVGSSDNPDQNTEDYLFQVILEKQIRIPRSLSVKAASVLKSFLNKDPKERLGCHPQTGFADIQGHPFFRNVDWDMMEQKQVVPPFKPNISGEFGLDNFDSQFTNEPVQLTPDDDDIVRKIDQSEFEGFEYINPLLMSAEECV
# B3: Mothers against decapentaplegic homolog 4 (Homo sapiens), Q13485 (parent)
# chain: B1 chain
# partner: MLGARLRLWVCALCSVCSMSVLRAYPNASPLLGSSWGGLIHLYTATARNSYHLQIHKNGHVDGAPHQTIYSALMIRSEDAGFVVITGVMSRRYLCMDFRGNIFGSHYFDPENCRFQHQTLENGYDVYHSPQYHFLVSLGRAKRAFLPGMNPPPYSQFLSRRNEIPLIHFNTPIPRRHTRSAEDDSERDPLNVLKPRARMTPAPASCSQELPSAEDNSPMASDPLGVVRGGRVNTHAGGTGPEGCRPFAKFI
# B4: Mothers against decapentaplegic homolog 4 (Homo sapiens), Q13485 (parent)
# chain: B1 chain
# partner: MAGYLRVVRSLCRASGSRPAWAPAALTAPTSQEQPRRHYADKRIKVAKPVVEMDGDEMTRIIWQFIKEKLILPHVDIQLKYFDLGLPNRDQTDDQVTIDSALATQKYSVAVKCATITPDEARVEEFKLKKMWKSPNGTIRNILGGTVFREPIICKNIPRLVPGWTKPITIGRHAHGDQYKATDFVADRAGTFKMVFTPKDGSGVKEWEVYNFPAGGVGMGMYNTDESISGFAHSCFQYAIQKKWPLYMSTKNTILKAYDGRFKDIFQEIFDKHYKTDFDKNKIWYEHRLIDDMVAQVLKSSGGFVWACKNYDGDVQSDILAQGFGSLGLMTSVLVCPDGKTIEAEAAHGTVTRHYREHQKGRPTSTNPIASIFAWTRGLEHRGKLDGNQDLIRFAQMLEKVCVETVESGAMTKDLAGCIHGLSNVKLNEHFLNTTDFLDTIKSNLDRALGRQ
# B5: Mothers against decapentaplegic homolog 4 (Homo sapiens), Q13485 (parent)
# chain: B1 chain
# partner: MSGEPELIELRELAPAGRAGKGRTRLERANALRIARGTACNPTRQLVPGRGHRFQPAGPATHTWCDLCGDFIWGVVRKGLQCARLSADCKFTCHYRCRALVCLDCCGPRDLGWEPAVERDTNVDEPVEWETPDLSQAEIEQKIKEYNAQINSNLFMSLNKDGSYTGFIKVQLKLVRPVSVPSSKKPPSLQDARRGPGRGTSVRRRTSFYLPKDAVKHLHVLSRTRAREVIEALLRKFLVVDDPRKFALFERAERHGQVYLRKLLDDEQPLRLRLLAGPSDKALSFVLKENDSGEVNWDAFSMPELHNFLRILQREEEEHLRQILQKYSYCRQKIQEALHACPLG
# B6: Mothers against decapentaplegic homolog 4 (Homo sapiens), Q13485 (parent)
# chain: B1 chain
# partner: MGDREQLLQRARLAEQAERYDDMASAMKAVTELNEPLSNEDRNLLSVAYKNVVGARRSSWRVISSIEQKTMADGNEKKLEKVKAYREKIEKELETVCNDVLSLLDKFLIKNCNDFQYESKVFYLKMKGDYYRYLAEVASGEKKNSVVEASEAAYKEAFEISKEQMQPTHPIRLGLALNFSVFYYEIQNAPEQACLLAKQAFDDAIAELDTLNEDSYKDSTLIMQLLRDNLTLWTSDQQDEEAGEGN
# B7: Mothers against decapentaplegic homolog 4 (Homo sapiens), Q13485 (parent)
# chain: B1 chain
# partner: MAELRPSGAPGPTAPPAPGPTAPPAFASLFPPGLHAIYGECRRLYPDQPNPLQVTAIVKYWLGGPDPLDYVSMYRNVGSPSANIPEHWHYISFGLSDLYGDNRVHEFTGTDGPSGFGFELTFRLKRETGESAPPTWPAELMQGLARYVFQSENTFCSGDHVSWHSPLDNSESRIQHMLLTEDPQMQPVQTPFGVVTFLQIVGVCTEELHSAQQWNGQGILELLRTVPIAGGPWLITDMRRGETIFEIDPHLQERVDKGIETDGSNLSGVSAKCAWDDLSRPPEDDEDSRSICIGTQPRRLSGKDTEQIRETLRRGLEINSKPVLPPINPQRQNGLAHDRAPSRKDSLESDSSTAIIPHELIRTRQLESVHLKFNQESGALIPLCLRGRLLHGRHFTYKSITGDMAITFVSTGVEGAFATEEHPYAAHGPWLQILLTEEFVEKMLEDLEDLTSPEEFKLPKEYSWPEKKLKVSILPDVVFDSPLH
# B8: Mothers against decapentaplegic homolog 4 (Homo sapiens), Q13485 (parent)
# chain: B1 chain
# partner: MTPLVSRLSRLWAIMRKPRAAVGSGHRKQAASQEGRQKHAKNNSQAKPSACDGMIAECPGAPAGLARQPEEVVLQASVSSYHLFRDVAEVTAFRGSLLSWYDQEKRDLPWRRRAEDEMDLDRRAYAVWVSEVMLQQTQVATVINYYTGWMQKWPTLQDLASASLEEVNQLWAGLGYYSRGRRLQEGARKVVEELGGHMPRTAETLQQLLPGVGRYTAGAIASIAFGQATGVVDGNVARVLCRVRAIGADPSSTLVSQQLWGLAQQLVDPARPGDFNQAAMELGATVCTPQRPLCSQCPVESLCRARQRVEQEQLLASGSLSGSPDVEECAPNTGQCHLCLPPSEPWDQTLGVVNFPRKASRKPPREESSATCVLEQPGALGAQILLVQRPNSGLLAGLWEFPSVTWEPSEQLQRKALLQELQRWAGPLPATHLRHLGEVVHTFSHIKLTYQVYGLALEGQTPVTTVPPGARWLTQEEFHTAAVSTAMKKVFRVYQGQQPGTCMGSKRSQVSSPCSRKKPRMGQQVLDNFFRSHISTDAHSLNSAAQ
# B9: Mothers against decapentaplegic homolog 4 (Homo sapiens), Q13485 (parent)
# chain: B1 chain
# partner: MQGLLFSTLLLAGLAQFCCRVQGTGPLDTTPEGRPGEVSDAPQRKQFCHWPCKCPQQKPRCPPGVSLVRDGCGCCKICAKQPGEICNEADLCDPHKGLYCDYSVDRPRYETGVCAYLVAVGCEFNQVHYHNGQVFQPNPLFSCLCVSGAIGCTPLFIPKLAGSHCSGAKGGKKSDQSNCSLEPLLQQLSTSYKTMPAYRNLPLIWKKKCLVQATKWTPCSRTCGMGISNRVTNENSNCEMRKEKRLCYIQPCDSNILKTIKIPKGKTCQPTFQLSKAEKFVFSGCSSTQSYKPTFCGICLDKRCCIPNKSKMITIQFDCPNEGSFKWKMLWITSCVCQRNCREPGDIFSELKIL
# Variants of: B1
# Details: with mycl_human MYCL
row,effect of a mutation on the interaction,Variant
1,with no effect,R361C

# Variants of: B2
# Details: with kpci_human PRKCI
row,effect of a mutation on the interaction,Variant
1,with no effect,D351H

# Variants of: B2
# Details: with kpci_human PRKCI
# Remark: another data set of the same source
row,effect of a mutation on the interaction,Variant
1,with no effect,R361H

# Variants of: B3
# Details: with fgf23_human FGF23, Q9GZV9
row,effect of a mutation on the interaction,Variant
1,with no effect,G386D

# Variants of: B3
# Details: with fgf23_human FGF23, Q9GZV9
# Remark: another data set of the same source
row,effect of a mutation on the interaction,Variant
1,increasing interaction strength,G386D

# Variants of: B4
# Details: with idhp_human IDH2, P48735
row,effect of a mutation on the interaction,Variant
1,with no effect,G386D

# Variants of: B5
# Details: with rasf1_human RASSF1, Q9NS23
row,effect of a mutation on the interaction,Variant
1,with no effect,G386D

# Variants of: B5
# Details: with rasf1_human RASSF1, Q9NS23
# Remark: another data set of the same source
row,effect of a mutation on the interaction,Variant
1,with no effect,R361C

# Variants of: B5
# Details: with rasf1_human RASSF1, Q9NS23
# Remark: another data set of the same source
row,effect of a mutation on the interaction,Variant
1,with no effect,R361H

# Variants of: B5
# Details: with rasf1_human RASSF1, Q9NS23
# Remark: another data set of the same source
row,effect of a mutation on the interaction,Variant
1,with no effect,D351H

# Variants of: B6
# Details: with 1433f_human YWHAH
row,effect of a mutation on the interaction,Variant
1,with no effect,G386D

# Variants of: B6
# Details: with 1433f_human YWHAH
# Remark: another data set of the same source
row,effect of a mutation on the interaction,Variant
1,with no effect,R361H

# Variants of: B6
# Details: with 1433f_human YWHAH
# Remark: another data set of the same source
row,effect of a mutation on the interaction,Variant
1,with no effect,R361C

# Variants of: B6
# Details: with 1433f_human YWHAH
# Remark: another data set of the same source
row,effect of a mutation on the interaction,Variant
1,with no effect,D351H

# Variants of: B7
# Details: with sufu_human SUFU
row,effect of a mutation on the interaction,Variant
1,with no effect,R361H

# Variants of: B7
# Details: with sufu_human SUFU
# Remark: another data set of the same source
row,effect of a mutation on the interaction,Variant
1,with no effect,R361C

# Variants of: B7
# Details: with sufu_human SUFU
# Remark: another data set of the same source
row,effect of a mutation on the interaction,Variant
1,with no effect,D351H

# Variants of: B7
# Details: with sufu_human SUFU
# Remark: another data set of the same source
row,effect of a mutation on the interaction,Variant
1,with no effect,G386D

# Variants of: B8
# Details: with mutyh_human MUTYH
row,effect of a mutation on the interaction,Variant
1,with no effect,D351H

# Variants of: B8
# Details: with mutyh_human MUTYH
# Remark: another data set of the same source
row,effect of a mutation on the interaction,Variant
1,with no effect,G386D

# Variants of: B8
# Details: with mutyh_human MUTYH
# Remark: another data set of the same source
row,effect of a mutation on the interaction,Variant
1,with no effect,R361C

# Variants of: B9
# Details: with ccn6_human CCN6, O95389
row,effect of a mutation on the interaction,Variant
1,with no effect,G386D

# Variants of: B9
# Details: with ccn6_human CCN6, O95389
# Remark: another data set of the same source
row,effect of a mutation on the interaction,Variant
1,with no effect,R361C
